Data taken from US20240124575A1 (SIMCERE ZAIMING PHARMACEUTICAL, published 2024).
Like-named read-outs stand apart in the source and are kept apart here. Values belong to the binder of their own block, whether it stands above or below them.

Assays:
[1] = target: T1, monkey CD33-His protein (monkey); assay: ELISA on coated monkey CD33-his
T1 construct: also called monkey CD33 protein

[2] = target: T2, human CD33-His (extracellular domain Asp 18-His 259) (human, UniProt P20138 18-259); assay: competitive ELISA vs coated S006-NB146-16 3ug/mL; soluble 25ug/ml
T2 construct: range 18-259; bought protein; also called hCD33-his; human CD33 protein; not shown: His tag

[3] = target: T2, human CD33-His (extracellular domain …); assay: ELISA on coated human CD33-his
Experimental: (§1) In order to assay the binding activity of VHH-Fc to human CD33 protein, a human CD33-his protein (purchased from ACROBiosystems, Cat. No. CD3-H5226) was diluted with PBS to make a final concentration of 2 μg/mL, and then added into a 96-well ELISA plate at 100 μL/well. The plate was sealed with a plastic film and incubated at 4° C. overnight, washed twice with PBS the next day, and a blocking solution [PBS+2% (w/w) BSA] was added for blocking at room temperature for 2 h. The blocking solution was discarded, and VHH-Fc antibody or negative control antibody serially diluted from 100 nM was added at 50 μL/well. After incubation at 37° C. for 2 h, the plate was washed 3 times with PBS. A secondary antibody labeled with HRP (horseradish peroxidase) (purchased from Sigma, Cat. No. A0170) was added. After incubation for 1 h at 37° C., the plate was washed 5 times with PBS. A TMB substrate was added at 50 μL/well. After incubation at room temperature for 10 min, a stop solution (1.0 N HCl) was added at 50 μL/well. The OD450 nm values were read on an ELISA plate reader (Multimode Plate Reader, EnSight, purchased from Perkin Elmer). The assay results for the binding of the VHH-Fc to hCD33-his by ELISA are shown in FIGS. 7A and 7B and Tables 11 and 12. […] The IgG control was hIgG1, and the data in the table are OD450 nm values. […]

[4] = target: T2, human CD33-His (extracellular domain …); assay: ELISA on coated human CD33-his; remark: listed apart in the source
Experimental: as §1

[5] = target: T2, human CD33-His (extracellular domain …); assay: competitive ELISA vs coated S006-NB146-173 3ug/mL; soluble 25ug/ml
[6] = target: T1, monkey CD33-His protein; assay: ELISA on coated monkey CD33-his; remark: listed apart in the source
[7] = target: T2, human CD33-His (extracellular domain …); assay: competitive ELISA vs coated S006-NB146-139 3ug/mL; soluble 25ug/ml
[8] = target: T2, human CD33-His (extracellular domain …); assay: competitive ELISA vs coated SGN-33 3ug/mL; soluble 25ug/ml
[9] = target: T3, human CD33-his protein (human, UniProt P20138 18-259); assay: competition ELISA, coated human CD33-his, vs Biotin-C33B904 at EC80; antibody 62.50 nM
T3 construct: range 18-259; bought protein; also called hCD33-his; recombinant human CD33-his; not shown: His tag
Experimental: (§2) The plate was sealed with a plastic film and incubated at 4° C. overnight, washed twice with PBS the next day, and a blocking solution [PBS+2% (w/w) BSA] was added for blocking at room temperature for 2 h. The blocking solution was discarded, and VHH-Fc antibody or negative control antibody serially diluted from 100 nM was added at 50 μL/well. After incubation at 37° C. for 2 h, the plate was washed 3 times with PBS. A secondary antibody labeled with HRP (horseradish peroxidase) (purchased from Sigma, Cat. No. A0170) was added. After incubation for 1 h at 37° C., the plate was washed 5 times with PBS. A TMB substrate was added at 50 μL/well. After incubation at room temperature for 10 min, a stop solution (1.0 N HCl) was added at 50 μL/well. The OD450 nm values were read on an ELISA plate reader (Multimode Plate Reader, EnSight, purchased from Perkin Elmer). The assay results for the binding of the VHH-Fc to hCD33-his by ELISA are shown in FIGS. 7A and 7B and Tables 11 and 12. […] The IgG control was hIgG1, and the data in the table are OD450 nm values.
(§3) ELISA plates were coated with 2 μg/mL human CD33-his protein according to the method in Example 5.1; the Biotin-C331B904 antibody was subjected to a gradient dilution from 15 μg/mL, and EC80 values (0.18 μg/mL) were calculated. […] OD_{450 nm} values were read using an ELISA plate reader (Insight, purchased from PerkinElmer). […]

[10] = target: T3, human CD33-his protein; assay: competition ELISA, coated human CD33-his, vs Biotin-C33B904 at EC80; antibody 0.49 nM
Experimental: as §2, §3

[11] = target: T3, human CD33-his protein; assay: competition ELISA, coated human CD33-his, vs Biotin-C33B904 at EC80; antibody 15.63 nM
Experimental: as §2, §3

[12] = target: T3, human CD33-his protein; assay: competition ELISA, coated human CD33-his, vs Biotin-C33B904 at EC80; antibody 31.25 nM
Experimental: as §2, §3

T2 sequence (P20138 18-259 limits assumed): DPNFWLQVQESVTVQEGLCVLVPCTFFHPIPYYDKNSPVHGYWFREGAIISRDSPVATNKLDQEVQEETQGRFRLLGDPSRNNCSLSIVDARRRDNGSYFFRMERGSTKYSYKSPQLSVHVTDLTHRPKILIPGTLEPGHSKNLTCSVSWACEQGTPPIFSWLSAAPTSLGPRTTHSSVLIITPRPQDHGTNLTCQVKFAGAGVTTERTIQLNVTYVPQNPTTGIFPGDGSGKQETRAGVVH
T3 sequence (P20138 18-259 limits assumed): as above

EC50 (read off the curve) [1]: ~0.3 nM
inhibition rate [2]: 100%
EC50 (read off the curve) [3]: ~0.3 nM
EC50 (read off the curve) [4]: ~0.3 nM
inhibition rate [5]: 100%
EC50 (read off the curve) [6]: ~0.2 nM
inhibition rate [7]: 101%
inhibition rate [8]: 14%
B1: C33B904 hIgG1 (antibody, V domains shown)
VH: EVQLVESGGGLVQPGRSLRLSCAASGFTFDDYAMHWVRQAPGKGLEWVSGIGWSGGSIVYADSVKGRFTISRDNAKNSLYLQMNSLRAEDTALYYCAKDSPYGDFFDYWGQGTLVTVSS
VL: DIVMTQSPDSLAVSLGERATINCKSSQTVFYSSNNKNYLAWYQQKPGQPPKLLISWASTRKSGVPDRFSGSGSGTDFTLTVSSLQAEDVAVYYCQHYYSTPYTFGQGTKLEIKR
notes: intact human IgG1; variable regions from US20190382481A1; also called C33B3904; C331B904

OD450 (Biotin-C33B904 signal) [9]: 0.24
OD450 (Biotin-C33B904 signal) [10]: 2.44
OD450 (Biotin-C33B904 signal) [11]: 1.03
OD450 (Biotin-C33B904 signal) [12]: 0.46
B2: C33B904 (antibody, human IgG1, kappa, V domains shown)
VH: B1 VH
VL: B1 VL
notes: control antibody, intact human IgG1 form; variable regions from US20190382481A1; also called C33B904 hIgG1; C331B904
